Test results from the supplement of paper PMC10899765.

Experiments:
Details in all cases: 20 nM; 72 h
MCF10A [1] = assay: one-nucleolus phenotype percent effect (relative to siNT 0% and siNOL11 100%); higher = more cells with one nucleolus (ribosome biogenesis inhibition)
Experimental: (§1)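 After 72 h, cells were fixed and stained with Hoechst and anti-fibrillarin, and nucleoli per nucleus were counted with CellProfiler. Values are plate-adjusted percent effect for the one-nucleolus and 5+ nucleoli phenotypes, normalised to siNT (0%) and to the positive controls siNOL11 or siKIF11 (100%), as the mean of biological triplicates. Percent viability is the nuclei count relative to siNT.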

MCF10A [2] = assay: 5+ nucleoli phenotype percent effect (relative to siNT 0% and siKIF11 100%); higher = more cells with five or more nucleoli
Experimental: as §1

MCF10A [3] = assay: percent viability (nuclei count relative to siNT); higher = more viable cells
Experimental: as §1

Sequence | one-nucleolus phenotype percent effect (MCF10A [1]) | 5+ nucleoli phenotype percent effect (MCF10A [2]) | percent viability (MCF10A [3])
GCCCUGAACGAGGGGUCUGGAG [hsa-miR-345-3p] | -13.5% | 29.8% | 61%
GCCCUGACCUGUCCUGUUCUG [hsa-miR-4732-3p] | -20.3% | 21.5% | 64.3%
GCCGGACAAGAGGGAGG [hsa-miR-4442] | -19.9% | 25.4% | 96%
GCCGGGGCUUUGGGUGAGGG [hsa-miR-6784-5p] | -23.3% | 49% | 171%
GCCUAUCACAUAUCUGCCUGU [hsa-miR-3927-5p] | -27.5% | 67.2% | 73.9%
GCCUCUCUCGGAGUCGCUCGGA [hsa-miR-3183] | -23.3% | 40% | 77.6%
GCCUGCUGGGGUGGAACCUGGU [hsa-miR-370] | 12.5% | -25.5% | 45.3%
GCCUGGAGCUACUCCACCAUCUC [hsa-miR-4254] | 7% | 11.1% | 26.1%
GCGACCCACUCUUGGUUUCCA [hsa-miR-551a] | -18% | 39.1% | 81.6%
GCGACCCAUACUUGGUUUCAG [hsa-miR-551b-3p] | -14.5% | 23.7% | 111%
GCGACUCUGAAAACUAGAAGGU [hsa-miR-4431] | -23.7% | 34.2% | 82.9%
GCGAGGACCCCUCGGGGUCUGAC [hsa-miR-611] | -31.1% | 45.7% | 121%
GCGCUGACCCGCCUUCUCCGCA [hsa-miR-6825-3p] | -15% | 45.7% | 108%
GCGGAAGGCGGAGCGGCGGA [hsa-miR-6125] | -24.1% | 25.5% | 155%
GCGGAGAGAGAAUGGGGAGC [hsa-miR-5739] | -16.4% | 53.5% | 110%
GCGGGGCUGGGCGCGCG [hsa-miR-4508] | -26.4% | 29.5% | 90.5%
GCGGGGGUGGCGGCGGCAUCCC [hsa-miR-4787-5p] | -21.5% | 25.2% | 86.7%
GCGGUGAUCCCGAUGGUGUGAGC [hsa-miR-598-5p] | -24% | 32.8% | 93.1%
GCGGUGGGGCCGGAGGGGCGU [hsa-miR-6786-5p] | -24.9% | 31.9% | 96.7%
GCUAAGGAAGUCCUGUGCUCAG [hsa-miR-4521] | -19.3% | 34.9% | 83.7%

Sequence | one-nucleolus phenotype percent effect (MCF10A [1]) | 5+ nucleoli phenotype percent effect (MCF10A [2]) | percent viability (MCF10A [3])
GCUACUUCACAACACCAGGGCC [hsa-miR-138-1-3p] | -15.7% | 30.5% | 112%
GCUAGUCCUGACUCAGCCAGU [hsa-miR-554] | -12.9% | 10.2% | 67.7%
GCUAUUUCACGACACCAGGGUU [hsa-miR-138-2-3p] | 4.26% | -22.8% | 43.1%
GCUCAGGGAUGAUAACUGUGCUGAGA [hsa-miR-4518] | -10.2% | 31.9% | 55.6%
GCUCAUCCCCAUCUCCUUUCAG [hsa-miR-6870-3p] | -31.1% | 36.6% | 115%
GCUCCCUCUAGGGUCGCUCGGA [hsa-miR-4469] | -24.8% | 66% | 67.3%
GCUCGGACUGAGCAGGUGGG [hsa-miR-3917] | -20.1% | 32.5% | 57.6%
GCUCUGACGAGGUUGCACUACU [hsa-miR-301b-5p] | -22.6% | 15.2% | 60.8%
GCUCUGACUUUAUUGCACUACU [hsa-miR-301a-5p] | -23.6% | 59.9% | 68.8%
GCUGAACUGGGCUGAGCUGGGC [hsa-miR-4539] | -1.34% | -5.15% | 87%
GCUGACAGCAGGGCUGGCCGCU [hsa-miR-4526] | -0.679% | 16.9% | 59.2%
GCUGACUCCUAGUCCAGGGCUC [hsa-miR-345-5p] | -8.97% | 31.9% | 100%
GCUGAUGAUGAUGGUGCUGAAG [hsa-miR-4502] | -19.2% | 38.7% | 85.3%
GCUGCACCGGAGACUGGGUAA [hsa-miR-3130-3p] | -5.32% | 26.7% | 65%
GCUGCGCUUGGAUUUCGUCCCC [hsa-miR-191-3p] | 5.27% | 5.48% | 71%
GCUGCGGGCUGCGGUCAGGGCG [hsa-miR-4734] | -5.38% | 8.16% | 40.7%
GCUGGGAAGGCAAAGGGACGU [hsa-miR-204-3p] | -9.16% | 24.5% | 49.7%
GCUGGGAUUACAGGCAUGAGCC [hsa-miR-619-5p] | -9.05% | 19% | 50%
GCUGGGCAGGGCUUCUGAGCUCCUU [hsa-miR-612] | 14.9% | -7.01% | 77.6%
GCUGGGCGAGGCUGGCA [hsa-miR-4486] | 19.5% | 3.78% | 38.6%

Sequence | one-nucleolus phenotype percent effect (MCF10A [1]) | 5+ nucleoli phenotype percent effect (MCF10A [2]) | percent viability (MCF10A [3])
GCUGGUCUGCGUGGUGCUCGG [hsa-miR-3663-5p] | -23.3% | 52.4% | 123%
GCUGGUGACAUGAGAGGC [hsa-miR-4299] | -5.58% | 34.1% | 42.6%
GCUGGUGCAAAAGUAAUGGCGG [hsa-miR-548q] | 46% | -16.7% | 30.5%
GCUGGUUUCAUAUGGUGGUUUAGA [hsa-miR-29b-1-5p] | -17.6% | 38.2% | 100%
GCUUCUGUAGUGUAGUC [hsa-miR-3182] | -17.1% | 35.6% | 57%
GCUUGUCGCUGCGGUGUUGCU [hsa-miR-3655] | 29.1% | -7.75% | 65.9%
GGACCCACCCGGCCGGGAAUA [hsa-miR-1180-5p] | -33.8% | 38.4% | 75.2%
GGAGAAAUUAUCCUUGGUGUGU [hsa-miR-539-5p] | -14.8% | 17.9% | 55.7%
GGAGACUGAUGAGUUCCCGGGA [hsa-miR-873-3p] | -6.55% | -5.61% | 106%
GGAGAUGGAGGUUGCAGUG [hsa-miR-1273f] | 20.3% | 1.46% | 62.9%
GGAGGAACCUUGGAGCUUCGGC [hsa-miR-3928] | -14.5% | 45.7% | 50%
GGAGGCCGGGGUGGGGCGGGGCGG [hsa-miR-6089] | -25.7% | 53% | 153%
GGAGGCGCAGGCUCGGAAAGGCG [hsa-miR-3197] | -2.74% | 13.6% | 41.9%
GGAGGGGUCCCGCACUGGGAGG [hsa-miR-1914-3p] | -23.7% | 46.6% | 126%
GGAGGUUGGGAAGGGCAGAG [hsa-miR-6086] | -8.13% | 0.449% | 69.1%
GGAGUGGGCUGGUGGUU [hsa-miR-4481] | 5.61% | 6.11% | 37.8%
GGAUAUCAUCAUAUACUGUAAG [hsa-miR-144-5p] | -0.41% | 2.47% | 54.5%
GGAUCCGAGUCACGGCACCA [hsa-miR-4454] | -14.9% | 0.148% | 56%
GGAUGGAGGAGGGGUCU [hsa-miR-4534] | -5.6% | 31% | 46.8%
GGAUGGUUGGGGGCGGUCGGCGU [hsa-miR-8069] | 28.5% | -16.7% | 33.5%
